How the values were obtained:
[1] = target: the molecule itself; assay: crystal structure; Se-Met mL-GDH180 at 16.5 mg/ml with equimolar GarA; 100 mM sodium cacodylate pH 5.8, 12% v/v glycerol, 1.25 M (NH4)2SO4, 4 °C; two monomers in the asymmetric unit, tetramer by crystallographic symmetry; 6.27 Å
[2] = target: the molecule itself; assay: cryo-EM structure; 0.3 mg/ml native mL-GDH180 on Quantifoil R2/2 grids; single-particle, D2 symmetry; open (4.19 Å) and closed (6.6 Å) tetramers

Row | Protein | stoichiometry N [1] | stoichiometry N [2]
1 | Se-Met mL-GDH180 (seleno-methionine derivative of the mycobacterial L-GDH180 from Mycobacterium smegmatis MC2-155) (enzyme, UniProt A0R1C2 1-1594, looked up, seleno-methionine in place of methionine, No cleavage of the His6 tag is described; Crystallised from a solution that also held an equimolar amount of GarA from M. tuberculosis, which was not found in the crystal; also called seleno-methionine (Se-Met) derivative of mL-GDH180) MIRRLSVAFLSTYRGPQADAPGVTSTGPLAVAAHDDLVSDDLVAAHYRLASMRAPGETKAAVYPGDAGSGAALQIVTDQAPMLVDSVTVLLHRHGIAYTAIMNPVFRVRRGLDGELLDVRPAAEAAPGDGADECWILVPITAAADGEALTEATRLVPGILAEARQIGLDSGAMIAALHGLANDLATDLEGHFPNAERKEVAALLRWLADGHFVLLGYQQCVVGDGNAEVDPASRLGVLRLRNDVLPPLTDSDDLLVLAQATMPSYLRYGAYPYIVVVRESPGASRVIEHRFVGLFTVAAMNANALEIPLISRRVEEALAMAHRDPSHPGQLLRDIIQTIPRPELFALSSKQLLEMALAVVDLGSRRRTLLFLRADHLAHFVSCLVYLPRDRYTTAVRLEMQDILVRELGGAGIDYSARVSESPWAVVHFTVRLPEGTAADSVDTSLENESRIQDLLTEATRNWGDRMISAAAAASISPAALEHYAHAFPEDYKQAFAPQDAIADISLIEALQDDSVKLVLADTAEDRVWKLTWYLGGHSASLSELLPMLQSMGVVVLEERPFTLRRTDGLPVWIYQFKISPHPSIPHAPDAEAQRDTAQRFADAVTAIWHGRVEIDRFNELVMRAGLTWQQVVVLRAYAKYLRQAGFPYSQSHIESVLNENPHTTRSLIDLFEALFDPSQETDGRRDAQGAAAAVAADIDALVSLDTDRVLRAFANLIEATLRTNYFVARPDSARARNVLAFKLNPLVIKELPLPRPKFEIFVYSPRVEGVHLRFGFVARGGLRWSDRREDFRTEILGLVKAQAVKNAVIVPVGAKGGFVVKRPPTLTGDAAADREATRAEGVECYRLFISGLLDVTDNVDKATGAVVTPPEVVRRDGEDAYLVVAADKGTATFSDIANEVAKSYGFWLGDAFASGGSIGYDHKAMGITAKGAWESVKRHFREMGVDTQTQDFTVVGIGDMSGDVFGNGMLLSKHIRLVAAFDHRDIFLDPNPDAGRSWDERKRLFDLPRSSWADYDKSLISEGGGVYSRQQKSIPISPQVRTALGLDADVEELTPPALIKAILKAPVDLLWNGGIGTYIKAETEADADVGDRANDQIRVCGNQVRAKVIGEGGNLGVTALGRIEFDLAGGRINTDALDNSAGVDCSDHEVNIKILIDSAVTAGKVTPEERTELLLSMTDEVGELVLADNRDQNDLMGTSRANAASLLSVHARMIKDLVDNRGLNRELEALPSEKEIRRRADAGIGLTSPELATLMAHVKLALKDDVLASDLPDQEVFASRLPYYFPTRLREELHGEIRSHQLRREIITTMLVNDLVDTAGISYAYRITEDVGVGPVDAVRSYVAINAIFGIGDVWRRIRAAGDAGVPTSVTDRMTLDLRRLVDRAGRWLLNYRPQPLAVGAEINRFGAKVAALTPRMSEWLRGDDKAIVSKEAGDFASHGVPEDLAYHIATGLYQYSLLDVIDIADIVDREPDEVADTYFALMDHLGADALLTAVSRLSRDDRWHSLARLAIRDDIYGSLRALCFDVLAVGEPDENGEEKIAEWETTNSSRVTRARRTLTEIYKDGEQDLATLSVAARQIRSMTRTSGTGTTG | 4 | 
2 | native mL-GDH180 (mycobacterial large glutamate dehydrogenase of 180 kDa subunits from Mycobacterium smegmatis MC2-155) (enzyme, UniProt A0R1C2 1-1594, looked up, NAD-dependent large glutamate dehydrogenase (L-GDH180), Mycobacterium smegmatis MC2-155, MSMEG_4699, Uniprot A0R1C2; No cleavage of the His6 tag is described; Only residues 500-1588 are modelled in the cryo-EM coordinates (7A1D); also called L-GDH180 from M. smegmatis; MSMEG_4699; source: E. coli BL21(DE3) grown in LB broth, purified (HisTrap HP, Superose 6 size-exclusion chromatography)) MIRRLSVAFLSTYRGPQADAPGVTSTGPLAVAAHDDLVSDDLVAAHYRLASMRAPGETKAAVYPGDAGSGAALQIVTDQAPMLVDSVTVLLHRHGIAYTAIMNPVFRVRRGLDGELLDVRPAAEAAPGDGADECWILVPITAAADGEALTEATRLVPGILAEARQIGLDSGAMIAALHGLANDLATDLEGHFPNAERKEVAALLRWLADGHFVLLGYQQCVVGDGNAEVDPASRLGVLRLRNDVLPPLTDSDDLLVLAQATMPSYLRYGAYPYIVVVRESPGASRVIEHRFVGLFTVAAMNANALEIPLISRRVEEALAMAHRDPSHPGQLLRDIIQTIPRPELFALSSKQLLEMALAVVDLGSRRRTLLFLRADHLAHFVSCLVYLPRDRYTTAVRLEMQDILVRELGGAGIDYSARVSESPWAVVHFTVRLPEGTAADSVDTSLENESRIQDLLTEATRNWGDRMISAAAAASISPAALEHYAHAFPEDYKQAFAPQDAIADISLIEALQDDSVKLVLADTAEDRVWKLTWYLGGHSASLSELLPMLQSMGVVVLEERPFTLRRTDGLPVWIYQFKISPHPSIPHAPDAEAQRDTAQRFADAVTAIWHGRVEIDRFNELVMRAGLTWQQVVVLRAYAKYLRQAGFPYSQSHIESVLNENPHTTRSLIDLFEALFDPSQETDGRRDAQGAAAAVAADIDALVSLDTDRVLRAFANLIEATLRTNYFVARPDSARARNVLAFKLNPLVIKELPLPRPKFEIFVYSPRVEGVHLRFGFVARGGLRWSDRREDFRTEILGLVKAQAVKNAVIVPVGAKGGFVVKRPPTLTGDAAADREATRAEGVECYRLFISGLLDVTDNVDKATGAVVTPPEVVRRDGEDAYLVVAADKGTATFSDIANEVAKSYGFWLGDAFASGGSIGYDHKAMGITAKGAWESVKRHFREMGVDTQTQDFTVVGIGDMSGDVFGNGMLLSKHIRLVAAFDHRDIFLDPNPDAGRSWDERKRLFDLPRSSWADYDKSLISEGGGVYSRQQKSIPISPQVRTALGLDADVEELTPPALIKAILKAPVDLLWNGGIGTYIKAETEADADVGDRANDQIRVCGNQVRAKVIGEGGNLGVTALGRIEFDLAGGRINTDALDNSAGVDCSDHEVNIKILIDSAVTAGKVTPEERTELLLSMTDEVGELVLADNRDQNDLMGTSRANAASLLSVHARMIKDLVDNRGLNRELEALPSEKEIRRRADAGIGLTSPELATLMAHVKLALKDDVLASDLPDQEVFASRLPYYFPTRLREELHGEIRSHQLRREIITTMLVNDLVDTAGISYAYRITEDVGVGPVDAVRSYVAINAIFGIGDVWRRIRAAGDAGVPTSVTDRMTLDLRRLVDRAGRWLLNYRPQPLAVGAEINRFGAKVAALTPRMSEWLRGDDKAIVSKEAGDFASHGVPEDLAYHIATGLYQYSLLDVIDIADIVDREPDEVADTYFALMDHLGADALLTAVSRLSRDDRWHSLARLAIRDDIYGSLRALCFDVLAVGEPDENGEEKIAEWETTNSSRVTRARRTLTEIYKDGEQDLATLSVAARQIRSMTRTSGTGTTG |  | 4

— paper PMC8175468, “3D architecture and structural flexibility revealed in the subfamily of large glutamate dehydrogenases by a mycobacterial enzyme” (Communications Biology, 2021)
